# According to patent US10654925B2, “Anti-marinobufagenin antibodies and uses thereof” (priority 2018, dated 2020):
# How the values were obtained:
# [1] = Direct ELISA antigen binding of humanized anti-MBG; settings: 2 μg/ml MBG-conjugated BSA coated; OD 450 nm; among the 6 humanized antibodies; FIG. 1a, 1b
# Protocol: The antigen binding of humanized anti-MGB was assayed in a direct Elisa assay. 2 μg/ml of MBG-conjugated BSA was coated in the Elisa plate. After blocking with 1% BSA, 2-fold dilution series of humanized anti-MBG was added to the plate. After washing, the bound antibody was detected by adding anti-human Fc HRP conjugate, and quantified by adding the TMB substrate. OD absorption at 450 nm was measured in a microplate reader.
# [2] = ELISA avidity estimate on MBG-BSA; format: binding; settings: wells coated with 2 μg/ml MBG-BSA; IgG
# Protocol: (§1) The avidity of anti-MBG antibodies for MBG was estimated in an ELISA. Wells of a microtiter plate were coated with 2 μg/ml of either MBG-bovine serum albumin (BSA) or MBG-keyhole limpet hemocyanin (KLH). The wells were then blocked with 1% BSA. A test IgG antibody at varying concentrations (typically from about 0.0001 nM to about 25 nM) was added to the wells. The test IgG bound to immobilized MBG was detected with an anti-human Fc, horseradish peroxidase (HRP)-conjugated secondary antibody (Jackson ImmunoResearch). After washing of the wells, an appropriate HRP reagent (e.g., TMB ultra, Thermo Fisher) was added to the wells. Optical density (OD) at 450 nm was measured by a microplate reader. The concentration of test antibody at the midpoint of the binding curve is an estimate of avidity for MBG.
# [3] = ELISA avidity estimate on MBG-KLH; format: binding; settings: wells coated with 2 μg/ml MBG-KLH; IgG
# Protocol: as §1
# [4] = Competitive ELISA, relative CTS specificity, OUB as competitor; format: binding; settings: competition with immobilized MBG-BSA; normalized to MBG = 100%
# Protocol: The specificity (relative affinity) of anti-MBG antibodies for MBG relative to various cardiotonic steroids (CTSs) was determined in a competitive ELISA. Each anti-MBG antibody was tested for its binding to immobilized MBG in the presence of free MBG, resibufogenin (RBG), cinobufagin (CINO), ouabain (OUB) or digoxin (DIG) as a competitor. A constant amount of an anti-MBG antibody (typically 1-5 μg/mL) and varying concentrations of each CTS (from 10^−12M to 10^−5M) were pre-incubated before being added to the MBG-BSA-coated wells. After washing of the wells, an anti-human Fc, HRP-conjugated secondary antibody (at 1:5000 dilution) was added to the wells and incubated at 37° C. for 1 hr. After washing of the wells, an appropriate HRP reagent (e.g., TMB ultra, Thermo Fisher) was added to the wells. OD at 450 nm was measured by a microplate reader. MBG at 10 μM was assumed to be 100% competed, and MBG at 1 pM was assumed to be 0% competed. The data was plotted as a titration of antibody-antigen binding relative to free CTS concentration in the competition reaction to determine the free CTS concentration (μM) giving 50% maximal binding of antibody to immobilized MBG. The relative specificity of an antibody for a CTS was normalized to MBG=100%.
# [5] = system: pregnant Sprague-Dawley rats; assay: DOCA/saline rat model of pre-eclampsia; format: in vivo; settings: antibodies 2.2 mg/kg/d i.p. days 16-18 in PDS rats
# Protocol: Female Sprague-Dawley rats (200-250 g, Charles River Laboratories) were acclimatized for 1 week, and mated with male Sprague-Dawley rats (275-300 g). Pregnancy was confirmed by the presence of vaginal plugs or by examination of vaginal smears. Each rat was housed separately.
# Five groups of rats were studied (n=10 per group): Group 1 (NP): normal pregnant rats; Group 2 (PDS): pregnant rats injected i.p. initially with 12.5 mg of DOCA in a depot form, followed by a weekly i.p. injection of 6.5 mg of DOCA, and whose drinking water is replaced with 0.9% saline; Group 3 (NPM): Normal pregnant rats given daily injections of MBG (7.65 μg per kg body weight per day) once pregnancy was established on day four of the experiment; Group 4 (PDS-3E9): rats administered DOCA and saline as for Group 2, and also given the murine anti-MBG antibody 3E9 (2.2 mg per kg body weight per day) on days 16, 17, and 18 of pregnancy; and Group 5 (PDS-H3L2): rats administered DOCA and saline as for Group 2, and also given the humanized anti-MBG antibody H3L2 (2.2 mg per kg body weight per day) on days 16, 17, and 18 of pregnancy.
# Systolic blood pressure (BP) was measured by tail cuff at days 17-19. At least 3 readings are taken after BP has stabilized, and the mean of these values was calculated. The reported BP values are the mean of the daily measurements. At 18-20 days of pregnancy, 24-hour urine was collected in the absence of food to avoid contamination of the measurement of the protein amount in urine by any fallen food particles. Each rat was housed separately in a metabolic cage during this portion of the study. The 24-hour protein excretion was measured and was normalized to creatinine. The rats were sacrificed after the last measurement on days 18-20, and blood samples were taken. The number of fetal pups was counted and examined. The mean number of pups and any developmental or histological abnormalities in the pups were assessed. Statistical analysis was performed using analysis of variance and Tukey's post hoc test. A p value ≤0.05 was considered statistically significant.
# [6] = system: Na^+K^+-ATPase (NKA); assay: Na^+K^+-ATPase activity (Malachite Green Phosphate Assay); format: biochemical, rat; settings: anti-MBG antibodies 1-100 μg/mL; FIG. 4
# Protocol: Na^+K^+-ATPase (NKA) was purified from rat heart. The NKA was collected as the sarcolemmal/particulate (SLP) fraction and frozen.
# Na^+K^+-ATPase activity was measured as follows: aliquots of SLP were mixed with Reaction Buffer (200 mM Tris-HCl, pH 7.5, 200 mM NaCL, 30 mM MgCl2, 60 mM KCl, 10 mM EGTA, 100 μg/mL PMSF, 2 μg/mL pepstatin A, and 2 μg/mL aprotinin). Reactions were performed with or without MBG and with or without anti-MBG antibodies (1-100 μg/mL). Ouabain was used as positive control for NKA inhibition. Tubes were prewarmed, and ATP was added. Reactions were stopped and were placed on ice.
# Phosphate was assayed using the Malachite Green Phosphate Assay. Phosphate standard or sample was added to each well of a 96-well plate, followed by Reagent A. Reagent B was added, with mixing and incubation. OD was then read at 630 nm in a microplate spectrophotometer.
# [7] = system: pregnant Sprague-Dawley rats; assay: DOCA/saline rat model of pre-eclampsia; format: in vivo; settings: tail cuff; baseline; antibodies 2.2 mg/kg/d i.p. days 16-18 in PDS (DOCA/saline) rats; MBG 7.65 μg/kg/d in normal pregnant rats (NPM); N = 10
# [8] = system: PKC-δ in the nucleus of primary rat cardiac fibroblasts; assay: Inhibition of MBG-induced PKC-δ nuclear translocation (Western blot); settings: MBG 10 nM; FIG. 2b
# Protocol: MBG was incubated with an anti-MBG antibody prior to addition to cultured primary rat cardiac fibroblasts. Nuclei were isolated 30 min later and analyzed for amount of PKC-6.
molecule,measurement,setting,value
"H3L2: humanized anti-MBG antibody, VH H3 (SEQ ID NO: 11) with VL L2 (SEQ ID NO: 13) (antibody, V domains shown, Humanized VH sequence; Humanized VL sequence) VH: EVQLQESGPGLVKPSETLSLTCTVSGDSITSGYWNWIRQPPGKGLEYMGYISYSGTTYYNPSLKSRITISRDTSKNQYSLKLSSVTAADTAVYYCARARYGYGFDYWGQGTLVTVSS VL: DVVMTQSPLSLPVTLGQPASISCRSSQSIVHSNRNTYLEWYQQRPGQSPRLLIYKVSNRFSGVPDRFSGSGSGTDFTLKISRVEAEDVGVYYCFQGSHVPLTFGGGTKVEIK",binding affinity in direct ELISA,[1],highest binding affinity
same,"Estimated avidity (KA) (antibody concentration at 50% maximal binding to antigen, or EC50), Antigen 1 (MBG-BSA)",[2],0.6 nM
same,"Estimated avidity (KA) (antibody concentration at 50% maximal binding to antigen, or EC50), Antigen 2 (MBG-KLH)",[3],1.5 nM
same,Rel. CTS Specificity as % of MBG Binding: OUB,[4],0%
same,% Malformed Pups,[5]; MBG 7.65 μg/kg/d in NPM rats,0%
same,No. Pups,[5]; MBG 7.65 μg/kg/d in NPM rats,12.9 ± 3.2
same,Urine Protein,"[5]; normalized to creatinine, 18-20 days of pregnancy, MBG 7.65 μg/kg/d in NPM rats",3.5 ± 0.7 mg/24 h
same,Blood Pressure-Final,"[5]; tail cuff, 17-19 d of gestation, MBG 7.65 μg/kg/d in normal pregnant rats (NPM), N = 10",109.4 ± 11 mm Hg
same,inhibitory effect of MBG on NKA in presence of antibody,[6],reduce the inhibitory effect of MBG on NKA
same,Blood Pressure-Initial,[7],104 ± 5 mm Hg
same,"PKC-δ translocation into the nucleus, MBG plus antibody",[8],reduced
